{
  "source": "paper PMC12776482",
  "about": "“Structural and Functional Analysis of GGPPS Inhibition as a Therapeutic Mechanism for Acute Myeloid Leukemia (AML)” (Research Square, 2025)",
  "proteins": {"B1": {"name": "wild-type recombinant human geranylgeranyl pyrophosphate synthase (GGPPS) (enzyme)", "chain": "MEKTQETVQRILLEPYKYLLQLPGKQVRTKLSQAFNHWLKVPEDKLQIIIEVTEMLHNASLLIDDIEDNSKLRRGFPVAHSIYGIPSVINSANYVYFLGLEKVLTLDHPDAVKLFTRQLLELHQGQGLDIYWRDNYTCPTEEEYKAMVLQKTGGLFGLAVGLMQLFSDYKEDLKPLLNTLGLFFQIRDDYANLHSKEYSENKSFCEDLTEGKFSFPTIHAIWSRPESTQVQNILRQRTENIDIKKYCVHYLEDVGSFEYTRNTLKELEAKAYKQIDARGGNPELVALVKHLSKMFKEENE", "notes": "human geranylgeranyl pyrophosphate synthase (GGPPS, GGPS1), wild type; His6 tag removed with TEV protease; also called GGPP synthase; hGGPPS; source: E. coli (BL21 DE3), purified (Ni-NTA, TEV cleavage, second Ni-NTA, Superdex 200); not shown: His6, N-terminal, cleaved"}},
  "molecular_target": "the molecule itself",
  "test": "mass photometry; purified wild-type recombinant human GGPPS in solution; conditions not shown (Fig. S2)",
  "data": [
    {"protein": "B1", "values": [
      {"measurement": "stoichiometry N", "value": 6}
    ]}
  ]
}
